Test results published in paper PMC3516566, “Identification of an Acinetobacter baumannii Zinc Acquisition System that Facilitates Resistance to Calprotectin-mediated Zinc Sequestration”.

Target: T1, Zur (Acinetobacter baumannii ATCC 17978, UniProt V5VHH0 1-161)
T1 sequence: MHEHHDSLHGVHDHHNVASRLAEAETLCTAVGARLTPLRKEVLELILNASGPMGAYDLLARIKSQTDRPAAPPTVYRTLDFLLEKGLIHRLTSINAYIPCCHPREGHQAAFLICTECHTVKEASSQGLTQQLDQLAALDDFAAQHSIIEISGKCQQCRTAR
Assay: EMSA; 100 uM ZnCl2; Zur 0-2500 nM, DNA 250 nM; 20 mM Tris-HCl pH 8.0, 50 mM KCl, 1 mM DTT, 5% glycerol, 100 uM ZnCl2, 20 min at room temperature; 4% polyacrylamide gel
Conditions: protein: recombinant; tags: N-terminal 6xHis (pET15b), removed by thrombin; chain copies: 2; label: none (SYBR green stain); blunt

B1: znuA intragenic negative control (dsDNA)
DNA 1: GTTACAAAAATACCTAAGATTAATCGAAT
DNA 2: ATTCGATTAATCTTAGGTATTTTTGTAAC
binding result: no binding
